B3: pUL21-H6 (natural protein)
chain: MELSYATTMHYRDVVFYVTTDRNRAYFVCGGCVYSVGRPCASQPGEIAKFGLVVRGTGPDDRVVANYVRSELRQRGLQDVRPIGEDEVFLDSVCLLNPNVSSELDVINTNDVEVLDECLAEYCTSLRTSPGVLISGLRVRAQDRIIELFEHPTIVNVSSHFVYTPSPYVFALAQAHLPRLPSSLEALVSGLFDGIPAPRQPLDAHNPRTDVVITGRRAPRPIAGSGAGSGGAGAKRATVSEFVQVKHIDRVGPAGVSPAPPPNNTDSSSLVPGAQDSAPPGPTLRELWWVFYAADRALEEPRADSGLTREEVRAVRGFREQAWKLFGSAGAPRAFIGAALGLSPLQKLAVYYYIIHRERRLSPFPALVRLVGRYTQRHGLYVPRPDDPVLADAINGLFRDALAAGTTAEQLLMFDLLPPKDVPVGSDVQADSTALLRFIESQRLAVPGGVISPEHVAYLGAFLSVLYAGRGRMSAATHTARLTGVTSLVLAVGDVDRLSAFDRGAAGAASRTRAAGYLDVLLTVRLARSQHGQSV

Columns and labels:
pUL21-H6 [1] = biological target: B3; experiment: ITC; hyperphosphorylated CERTL; representative titration
pUL21-H6 [2] = biological target: T1, pUL21-H6 (HSV-1, UniProt P10205 1-535); experiment: ITC; 25°C, 20 mM Tris pH 8.5, 500 mM NaCl, 0.5 mM TCEP; CERTL forms or miniCERTL (about 190-380 μM) titrated into pUL21 forms (about 20-33 μM); one-site binding model; conditions: both partners purified
T1 construct: HSV-1 tegument protein pUL21; The tag's end is read from the name pUL21-H6; also called wild-type pUL21; full-length pUL21; source: E. coli T7 Express lysY/Iq, purified (Ni-NTA, SEC); not shown: H6, C-terminal, kept
T1 sequence: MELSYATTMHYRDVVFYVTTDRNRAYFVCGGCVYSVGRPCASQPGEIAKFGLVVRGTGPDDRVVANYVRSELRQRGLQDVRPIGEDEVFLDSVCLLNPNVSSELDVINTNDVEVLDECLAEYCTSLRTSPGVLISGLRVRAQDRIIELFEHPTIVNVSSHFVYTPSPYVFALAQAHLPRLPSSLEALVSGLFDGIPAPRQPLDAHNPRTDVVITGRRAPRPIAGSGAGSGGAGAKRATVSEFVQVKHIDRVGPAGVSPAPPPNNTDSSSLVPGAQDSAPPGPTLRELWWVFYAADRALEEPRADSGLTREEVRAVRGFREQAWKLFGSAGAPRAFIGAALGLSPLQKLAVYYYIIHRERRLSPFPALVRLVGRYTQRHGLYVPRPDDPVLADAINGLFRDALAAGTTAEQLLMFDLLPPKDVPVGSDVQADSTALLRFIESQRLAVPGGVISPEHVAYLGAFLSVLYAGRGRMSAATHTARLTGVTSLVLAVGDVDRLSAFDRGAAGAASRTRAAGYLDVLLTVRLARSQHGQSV

[3] = biological target: the molecule itself; experiment: SEC-MALS; Superose 6 increase 10/300 GL, 20 mM Tris pH 8.5, 500 mM NaCl, 0.5 mM TCEP; samples injected at 2 mg/mL
pUL21-H6 [4] = biological target: B3; experiment: ITC; hyperphosphorylated CERTL; mean of 3
StrepII-CERTL^S132A [5] = biological target: T2, StrepII-CERTL^S132A (human, UniProt Q9Y5P4-1 1-624, S132A); experiment: ITC; mean of 2
T2 sequence: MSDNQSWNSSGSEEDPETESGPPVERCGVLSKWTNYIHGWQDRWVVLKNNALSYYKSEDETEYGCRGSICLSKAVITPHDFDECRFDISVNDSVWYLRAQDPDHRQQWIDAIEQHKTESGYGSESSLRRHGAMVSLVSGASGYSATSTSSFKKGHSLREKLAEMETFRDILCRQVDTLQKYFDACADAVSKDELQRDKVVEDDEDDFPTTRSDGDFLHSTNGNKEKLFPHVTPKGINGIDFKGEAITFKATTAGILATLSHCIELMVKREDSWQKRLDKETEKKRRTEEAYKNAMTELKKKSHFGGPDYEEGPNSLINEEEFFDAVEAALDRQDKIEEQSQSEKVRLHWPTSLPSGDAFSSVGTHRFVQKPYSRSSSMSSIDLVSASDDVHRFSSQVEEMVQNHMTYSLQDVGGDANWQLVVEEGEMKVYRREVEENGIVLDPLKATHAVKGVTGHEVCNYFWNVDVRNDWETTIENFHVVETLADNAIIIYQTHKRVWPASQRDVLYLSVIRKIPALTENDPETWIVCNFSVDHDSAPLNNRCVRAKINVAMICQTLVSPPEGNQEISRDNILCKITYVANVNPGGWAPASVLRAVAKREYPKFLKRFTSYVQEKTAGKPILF

StrepII-CERTL^S132A [6] = biological target: T2, StrepII-CERTL^S132A; experiment: ITC; representative titration
H6-pUL21C [7] = biological target: T3, H6-pUL21C (HSV-1, UniProt P10205 275-535); experiment: ITC; representative titration
T3 chain: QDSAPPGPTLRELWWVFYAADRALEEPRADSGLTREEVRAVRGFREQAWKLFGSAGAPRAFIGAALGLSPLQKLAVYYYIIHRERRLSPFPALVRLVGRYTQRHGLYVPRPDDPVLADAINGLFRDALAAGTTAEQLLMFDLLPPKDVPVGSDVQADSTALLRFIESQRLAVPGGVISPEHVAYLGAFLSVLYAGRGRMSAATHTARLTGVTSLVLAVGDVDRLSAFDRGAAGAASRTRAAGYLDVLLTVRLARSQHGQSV

H6-pUL21C [8] = biological target: T4, H6-pUL21C (HSV-1, UniProt P10205 275-535); experiment: ITC; 25°C, 20 mM Tris pH 8.5, 500 mM NaCl, 0.5 mM TCEP; CERTL forms or miniCERTL (about 190-380 μM) titrated into pUL21 forms (about 20-33 μM); one-site binding model; conditions: both partners purified
T4 construct: HSV-1 pUL21 C-terminal domain, amino acids 275-535; In pOPTH; N-terminal MAH6QD and C-terminal HGQSV are missing from the crystal structure 5ED7 and were modelled; also called C-terminal domain of pUL21; source: E. coli T7 Express lysY/Iq, purified (Ni-NTA, SEC); not shown: MAH6, N-terminal, kept
T4 sequence: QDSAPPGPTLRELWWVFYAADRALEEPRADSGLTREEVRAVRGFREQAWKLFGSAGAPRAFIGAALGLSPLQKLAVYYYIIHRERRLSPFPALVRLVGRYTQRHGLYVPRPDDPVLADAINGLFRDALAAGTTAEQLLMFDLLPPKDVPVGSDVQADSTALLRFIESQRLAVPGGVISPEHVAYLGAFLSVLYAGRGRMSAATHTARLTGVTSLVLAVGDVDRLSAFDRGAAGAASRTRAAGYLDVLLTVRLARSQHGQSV

pUL21^V382E-H6 = biological target: T5, pUL21^V382E-H6 (HSV-1, UniProt P10205 1-535, V382E); experiment: as above; conditions: both partners purified
T5 construct: HSV-1 tegument protein pUL21 with V382E; The tag's end is read from the name pUL21^V382E-H6; also called H6-pUL21^V382E; V382E pUL21-H6; source: E. coli T7 Express lysY/Iq, purified (Ni-NTA, SEC); not shown: H6, C-terminal, kept
T5 sequence: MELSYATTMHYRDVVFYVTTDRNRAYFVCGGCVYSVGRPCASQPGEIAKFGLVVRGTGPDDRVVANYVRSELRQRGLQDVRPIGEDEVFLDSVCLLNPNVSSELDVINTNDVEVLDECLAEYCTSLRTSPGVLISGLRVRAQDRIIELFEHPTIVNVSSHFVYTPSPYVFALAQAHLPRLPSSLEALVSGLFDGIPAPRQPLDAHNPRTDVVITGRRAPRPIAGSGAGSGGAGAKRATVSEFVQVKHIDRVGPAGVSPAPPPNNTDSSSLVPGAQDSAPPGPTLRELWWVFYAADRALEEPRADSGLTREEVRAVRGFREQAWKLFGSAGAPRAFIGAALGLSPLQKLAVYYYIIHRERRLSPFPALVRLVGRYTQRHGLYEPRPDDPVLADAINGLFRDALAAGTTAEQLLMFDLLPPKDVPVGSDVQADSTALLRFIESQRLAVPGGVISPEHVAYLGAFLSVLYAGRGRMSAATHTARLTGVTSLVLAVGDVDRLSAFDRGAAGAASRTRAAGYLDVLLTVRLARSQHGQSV

pUL21-H6 [9] = biological target: B3; experiment: ITC; mean of 6
pUL21-H6 [10] = biological target: B3; experiment: ITC; representative titration

B1: StrepII-CERTL^P (hyperphosphorylated StrepII-tagged CERTL) (natural protein, human, UniProt Q9Y5P4-1 1-624, looked up)
chain: MSDNQSWNSSGSEEDPETESGPPVERCGVLSKWTNYIHGWQDRWVVLKNNALSYYKSEDETEYGCRGSICLSKAVITPHDFDECRFDISVNDSVWYLRAQDPDHRQQWIDAIEQHKTESGYGSESSLRRHGSMVSLVSGASGYSATSTSSFKKGHSLREKLAEMETFRDILCRQVDTLQKYFDACADAVSKDELQRDKVVEDDEDDFPTTRSDGDFLHSTNGNKEKLFPHVTPKGINGIDFKGEAITFKATTAGILATLSHCIELMVKREDSWQKRLDKETEKKRRTEEAYKNAMTELKKKSHFGGPDYEEGPNSLINEEEFFDAVEAALDRQDKIEEQSQSEKVRLHWPTSLPSGDAFSSVGTHRFVQKPYSRSSSMSSIDLVSASDDVHRFSSQVEEMVQNHMTYSLQDVGGDANWQLVVEEGEMKVYRREVEENGIVLDPLKATHAVKGVTGHEVCNYFWNVDVRNDWETTIENFHVVETLADNAIIIYQTHKRVWPASQRDVLYLSVIRKIPALTENDPETWIVCNFSVDHDSAPLNNRCVRAKINVAMICQTLVSPPEGNQEISRDNILCKITYVANVNPGGWAPASVLRAVAKREYPKFLKRFTSYVQEKTAGKPILF
modifications: hyperphosphorylated; sites not given
notes: human CERTL, synthetic gene, UniProt Q9Y5P4-1; Observed mass by SEC-MALS approaches that of a trimer; not shown: StrepII, N-terminal, kept
- Kd (pUL21-H6 [1]): 554 nM
- stoichiometry N (pUL21-H6 [2]): 0.74
- stoichiometry N [3]: ~3
- Kd (pUL21-H6 [4]): 773 nM

B2: StrepII-CERTL^S132A (natural protein, human, UniProt Q9Y5P4-1 1-624, looked up)
chain: MSDNQSWNSSGSEEDPETESGPPVERCGVLSKWTNYIHGWQDRWVVLKNNALSYYKSEDETEYGCRGSICLSKAVITPHDFDECRFDISVNDSVWYLRAQDPDHRQQWIDAIEQHKTESGYGSESSLRRHGAMVSLVSGASGYSATSTSSFKKGHSLREKLAEMETFRDILCRQVDTLQKYFDACADAVSKDELQRDKVVEDDEDDFPTTRSDGDFLHSTNGNKEKLFPHVTPKGINGIDFKGEAITFKATTAGILATLSHCIELMVKREDSWQKRLDKETEKKRRTEEAYKNAMTELKKKSHFGGPDYEEGPNSLINEEEFFDAVEAALDRQDKIEEQSQSEKVRLHWPTSLPSGDAFSSVGTHRFVQKPYSRSSSMSSIDLVSASDDVHRFSSQVEEMVQNHMTYSLQDVGGDANWQLVVEEGEMKVYRREVEENGIVLDPLKATHAVKGVTGHEVCNYFWNVDVRNDWETTIENFHVVETLADNAIIIYQTHKRVWPASQRDVLYLSVIRKIPALTENDPETWIVCNFSVDHDSAPLNNRCVRAKINVAMICQTLVSPPEGNQEISRDNILCKITYVANVNPGGWAPASVLRAVAKREYPKFLKRFTSYVQEKTAGKPILF
notes: human CERTL, synthetic gene, UniProt Q9Y5P4-1, with S132A; Hypophosphorylated: S132 cannot be phosphorylated to start the phosphorylation cascade of the serine-rich motif; also called constitutively hypophosphorylated form of CERTL; source: stably transfected Freestyle 293F cells, doxycycline-induced, purified (StrepTrap HP, Superose 6 SEC); not shown: StrepII, N-terminal, kept
- stoichiometry N (pUL21-H6 [2]): 1
- stoichiometry N [3]: ~3

Binder: B3
- Kd (StrepII-CERTL^S132A [5]): 642 nM
- Kd (StrepII-CERTL^S132A [6]): 460 nM

B4: H6-miniCERTL (domain or fragment, human, UniProt Q9Y5P4-1 20-131, looked up)
chain: SGPPVERCGVLSKWTNYIHGWQDRWVVLKNNALSYYKSEDETEYGCRGSICLSKAVITPHDFDECRFDISVNDSVWYLRAQDPDHRQQWIDAIEQHKTESGYGSESSLRRHGTSLPSGDAFSSVGTHRFVQKPYSRSSSMSSIDLVSASDDVHRFSSQVEEMVQNHMTYSLQDVGGDANWQLVVEEGEMKVYRREVEENGIVLDPLKATHAVKGVTGHEVCNYFWNVDVRNDWETTIENFHVVETLADNAIIIYQTHKRVWPASQRDVLYLSVIRKIPALTENDPETWIVCNFSVDHDSAPLNNRCVRAKINVAMICQTLVSPPEGNQEISRDNILCKITYVANVNPGGWAPASVLRAVAKREYPKFLKRFTSYVQEKTAGKPILF
notes: human CERTL (UniProt Q9Y5P4-1), residues 20-131: PH domain without its first 19 residues and the start of the middle region; human CERTL (UniProt Q9Y5P4-1), residues 351-624: the end of the middle region and the STARTL domain; joined directly to residue 131 (MR residues 132-350 left out); Cloned into pOPTH, which encodes the N-terminal MAH6 tag; source: E. coli T7 Express lysY/Iq, purified …
- Kd (H6-pUL21C [7]): 3150 nM
- Kd (H6-pUL21C [8]): 4300 nM
- fold reduction of binding affinity against wild-type pUL21 (pUL21^V382E-H6): ~8 fold
- Kd (pUL21-H6 [9]): 1040 nM
- Kd (pUL21-H6 [10]): 879 nM
